Where no end group is shown, it is not given here.
Assays:
[1] = target: Atto647N-YidC-23C (Escherichia coli) (UniProt P25714)
[2] = target: Atto647N-YidC-23C (Escherichia coli) (UniProt P25714); assay: FRET or BRET; single-pair FRET by confocal microscopy with alternating laser excitation (514 nm / 635 nm); Atto520-labeled Pf3 coat protein added to Atto647N-labeled YidC reconstituted in DOPC proteoliposomes; 20 mM Tris-HCl pH 7.0, 100 mM NaCl, isopropanol from the Pf3 solution; about 0.2 nM of both labeled proteins; bursts recorded for 420 s
[3] = target: Atto647N-YidC-442C (Escherichia coli) (UniProt P25714); assay: as above
[4] = target: Atto647N-YidC-511C (Escherichia coli) (UniProt P25714); assay: as above

insertion rate k (reciprocal of the time required for a distance change from 6.2 to 4.0 nm in single-pair FRET traces), at 15, 20, 25 and 30°C; k ≈ 250 s^−1 at 15°C [1]: 500 s⁻¹ | duration of the close contact [2]: 10 ms | duration of the close contact [3]: 10 ms | duration of the close contact [4]: 10 ms
Binder: MQSVITDVTGQLTAVC(Atto520‑maleimide)ADITTIGGAIIVLAAVVLGIRWIKAQFF (natural protein) [Atto520-Pf3-16C]

From publication PMC3602594
